The results in this text go back to the nanobody polyreactivity screen of Harvey et al. (2022).

A short description of this data set: yeast display, Sf9 membrane polyspecificity reagent, FACS + sequencing; frameworks hold sequencing errors. In a few lines: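 Galactose induction of a Saccharomyces cerevisiae BJ5465 synthetic nanobody display library ran 36–48 hours. The cells were then stained for 1 hour at 4 °C with 10% biotinylated, detergent-solubilized Sf9 membrane reagent, pulled down on streptavidin microbeads and FACS-sorted into low and high (top ~1%) gates on expression and reagent-binding fluorescence. Labels for polyreactivity follow the gate of origin.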
In the case of “QVQLVESGGGLVQAGGSLRLSCAASGRIFTSYVMGWYRQAPGKERELVAAITSSGGSTYYADSVKGRFTISRDNAKNTVYLQMNSLKPEDTAVYYCAAATRGSGRRYDYWGQGTQVTVSS”, the “polyreactivity (PSR sort gate)” value is on record as “high polyreactivity”.

For the sequence “QVQLVESGGGLFQAGGSLRLSCAASGSIFFENAMGWYRQAPGKEREFVAASTWSAGGRTDYADSVKGRFTISRDNAKTTVYLQMNSLKPEDTAVYYCARYPTNILYIPVRGYTDMDYWGQGTQVTVSW”, the “polyreactivity (PSR sort gate)” value is “low polyreactivity”.

For “QVQLVESGGGLVQAGGSLRLSCAASGSTIPSYAMGWYRPAPGKETELVASITYSDGTTRYADSVKGRFTISRDNAKNTVYLQMNSLIPEDTAVYYCNAVYYREGMDYWGQGTQVTVSS”, the “polyreactivity (PSR sort gate)” value is reported as “low polyreactivity”.

As for “QVQRVESGGGLVQAGGSLRLSCAASGSTLVYNDMGWYRPAPGKEREFVAAIRSNDGSTYYADSVKGRFTISRDNAKNTVYLQMNSLKPEDTAVYYCNKDVWDGYDWPEFDYSGQGTQVTVSS”, the “polyreactivity (PSR sort gate)” value is given as “low polyreactivity”.

In the case of “QVQLVESGGGLVQAGGSLRLSCAASGFIFYTYAMGWYRQAPGKERELVAAISRGGRTNYADSVKGRFTISRDNAKNSVYLQMNSLKPEDTAVYYCASSYSHRYDYWGQGTQVTVSS”, the “polyreactivity (PSR sort gate)” value was “high polyreactivity”.

For the sequence “QVQLVESGGGLVQAGGSLRLSCAASGSTLSQNAMGWYRQAPGKEREFVADISGAGDSTYYADSVKGRFTISRDNAKNTVYLQMISLKPDDTAVYYCATPSPHVGLKWEYDYWGQGTQVTVSS”, the “polyreactivity (PSR sort gate)” value is listed as “low polyreactivity”.

Regarding “QVQLVESGGGLVQAGGSLRLSCAASGSTFYWYTMGWYRQAPGKERELVARISSSGSTNYADSVKGRFTISRDNAKNTVYFQMNSLKPEDTAVYYCNKDWIYRGYDYWGQGTQVTVSS”, the “polyreactivity (PSR sort gate)” value is listed as “high polyreactivity”.

Take “QVQLVESGGGLVQAGGSLRLSCAASGSTFKRYARGWYRQAPGKEREFVAGISSRGSRTYYADSVKGRFTISRDNAKNTVYLQMNSLKPEDTAVYYCAVSGNHVSPPYGYWGQGTQVTVSS”: the “polyreactivity (PSR sort gate)” value was “high polyreactivity”.

Consider “QVQLVESGGGLVQAGGSLRLSCAASGSTFEYNAMGWYIQAPGKERELVASSTNYADSVKGRFTISRDNANNTVYLQMNSLKPEDTAVYYCAREQCVNRNHDYWGQGTQVTVSS”, for which the “polyreactivity (PSR sort gate)” value was “low polyreactivity”.

Turning to “QVQLVESGGGLVQAGGSLRLSCPASGLIFRRNVMGRYRQAPGKERELVAAISRGGSTYNADSVKGRFTISRDNAKNTVFLQMNSLNPEDTAVYYCAAAYTRYVVRGDFWGQGTQVTVSS”, the “polyreactivity (PSR sort gate)” value was “high polyreactivity”.

With “QVQLVESGGGLVQAGGSLRLSCAASGIIFGYYSMGWYRQAPGKERDLVAAITWSGGSTYYADSVKGRFTISRDYAKNTVYLQMNSLKPEDTAVYYCNALGWYGDYDYWGQGTQVTVSS”, the “polyreactivity (PSR sort gate)” value is recorded as “low polyreactivity”.

As to “QVQLVESGGGLVQAGGSLRLSCAASGYTFYPYDIGWYRQAPGKERELVAAISWSGGGTYYADSVKGRFTISRDNAKNTVYLQMNSLKPEDTAVYYCAADLKALNQSYPGYEYWGQGTQVTVSS”, the “polyreactivity (PSR sort gate)” value was “low polyreactivity”.

As for “QVHLVESGGGLVQAGGSLRLSCAASGGTDVGYAMGWYRQAPGKEMELDATITRRGGNTYYADSVKGRFTISRDNAKNTVYLQKNSLKPEDTAVYYCAARKKGSRVGYDYWGQGTQVTVSS”, the “polyreactivity (PSR sort gate)” value is reported as “high polyreactivity”.

As for “QVQLVESGGGLVQAGASLRLSCAASGITFWGYAMGWYRQAPGKEREFVARINWSGGRTYYAESVKGRFTISRDNAKNTVYLEMNSLKPEDTAVYDCAATSLIYGYRTYDYWGQGTQVTVSS”, the “polyreactivity (PSR sort gate)” value is recorded as “high polyreactivity”.

For “QVQLVESGGGLVQAGGSLRLSCDASGSIFRPNAMGWYRQPPGKERELVAAITWIAGGTYYADSVKGRFTISRDNAKNTVYLQMNSLKPEDTAVYYCAARWYFQTGVGRYYHYDYWGQGTQVTVSS”, the “polyreactivity (PSR sort gate)” value is recorded as “high polyreactivity”.

On to “QVQLVESGGGLVQAGCSLRLSCAASGFIFIRYAKGWYRQAPGQESELVASISSGGSTYYADSVKGRFTISRDNAKNTVYLQMNSLKPEDTAVYYCAAVFSKGLEGDYWGQGTQVTVSS”, for which the “polyreactivity (PSR sort gate)” value was “high polyreactivity”.

For the sequence “QVQLVESGGGLVQAGGSLRLSCAASGCIGRRYAMGWYRQAPGKERELVAAITSSGGGTYYADSVKGRFTISRDNAKNTVYFQINILTPEDTAVYYCAARVYGSHFYYRTRPYDYWGQGTQVTVSS”, the “polyreactivity (PSR sort gate)” value is listed as “high polyreactivity”.

For the sequence “QVQLVESGGGLVQAGGSLRLSCAASGFIFDSYVMGWYRQAPGKEREMVAAISSGGASTYYADSVKGRFTISRDNAKNTVYLQMNSLKPEDTAVYYCAAEYLYQPWGVDYDYWGQGSQVTVSS”, the “polyreactivity (PSR sort gate)” value is “high polyreactivity”.

On to “QVHLVESGGGLVQAGGSIRLSCAASGLIFYPYAMGWYRKAHGKEREFVAAITWSGGSTRYADSVKGRFTISLDNAKNTVYLQMNSLKPEDTAVYYCAARYIWWYDYTYTGLDYWGQGTQVSVSS”, for which the “polyreactivity (PSR sort gate)” value is listed as “high polyreactivity”.

Regarding “QVKLVESGRALVQAGCSLPLSCAASGRIFTRYAMGWYRQAPGKERELVAAISYGGGGTYYADSVKGSFTISRDNAKNTVYVQMNSLKPEDTAVYYCATDDPLSQINEQGMDYWGQGTQVTVSS”, the “polyreactivity (PSR sort gate)” value is on record as “low polyreactivity”.

In the case of “QVQLVESGGGLVQAGGSLRLTCAASGSIFHGNDMGWYRQAPGKETELVATISSGGSTYYADSVKGRFTSSRDNAKTTVYLQMNSLKPEDTAVYYCAAERFWPYKSYYWGQGTQVTVSS”, the “polyreactivity (PSR sort gate)” value is listed as “low polyreactivity”.

In the case of “QVQLVESGGGLVQAGGSLRLSCAASGFSVPLYTMGWYRQAPGKERELVAAISVTGGSTYYADSVKGRFTISRDNAQNTVYLPMNSLKPEDTAVYYCNAYLFFLNRVWSFDYWGQGTQVTVSS”, the “polyreactivity (PSR sort gate)” value is “low polyreactivity”.

In the case of “PVQLVESGGGLVPGGGSLRLSCAASGRIFNAYARGWYRQAPGKERELVAAISSRGGSTYYADSVKGRCTISRDNAKNSVYLQKNSLPPEDTAVYYCAAGIYTATGYGYWGQGTQVTVSS”, the “polyreactivity (PSR sort gate)” value is reported as “high polyreactivity”.

For the sequence “QVQLVESGGGLVQAGGSLRLSCAASGSIFGSYAMGWYRQAPGKERELVAGITYRGSSTYYADSVKGRFTISRDNAKNTVYLQMNSLKPEDTAVYYCAADPVFDEYDYWGQGTQVTVSS”, the “polyreactivity (PSR sort gate)” value is listed as “low polyreactivity”.

As to “QVQLVESGGGLVQAGGSLRLSCAASGSIFDIYAMGWYRQAPGKERELVADITISGGSTYYADSVKGRFTISRDNAKNTVYLQMNSLKPEDTAVYYCKKAYLGYRYDLYDYWGQGTQVTVSS”, the “polyreactivity (PSR sort gate)” value was “low polyreactivity”.

As for “QVQLVESGGGLVQAGGSLRLSCAASGFTFESYAMGWYRQAPGKERELVAAISWNGGSTYYADSVKGRFTISRDNAKNTVYLQMNSLKPEDTAVYYCAARGRAPRFRRIGYDYWGQGTQVTVSS”, the “polyreactivity (PSR sort gate)” value is given as “high polyreactivity”.

Regarding “QVQLVESGGGLVQAGGSLRLSCAASGRTFRYYTMGWYRQAPGKEREFVAAISSTGGTYYADSVKGRFTISRDNAKNTVYFQMNSLKPEDTAVYYCAAYRWGILSAYYYAWYGYWGQGTQVTVSS”, the “polyreactivity (PSR sort gate)” value is listed as “low polyreactivity”.

Turning to “QVQLVESGGGLVQAGGSLRLSCAASGSIFDRYGMGLYRQAPGKETELVADITSDGSTNYADSLKGRFTISRDNAKNSVYLQMNSLKREDTAVYYCAVSYTAYYVGYDYWGQGTQVTVSS”, the “polyreactivity (PSR sort gate)” value is listed as “low polyreactivity”.

On to “QVQLVESGGGLVQAGGSLRLSCAASGLIFPIYAMGWYRQAPGKERELVAVITWSGGSTYYADSVKGRFTISRDNAKNTVYLQMNSLKPEDTAVYYCAVEWAYPYWYTYYLEDYWGQGTQVTVSS”, for which the “polyreactivity (PSR sort gate)” value is “low polyreactivity”.

On to “QVQLVESGGGLVQAGGSHRLSCAASGRTYVYNAMGWYRQAPGKERELDAGITNGGSTNYADSVKGRFTISRDNAKNTVYLQMNSLKPEDTAVYYCAADSRVYPYYFGDFGYWGQGTQVTVSS”, for which the “polyreactivity (PSR sort gate)” value is listed as “low polyreactivity”.

Consider “QVQLVESGGGLVQAGGSLRLSCAASGNTFRFYTMGWYRQAPGKERELVAAINSSGRTNYADSVKGRFTISRDNAKNTVYLQMNSLKPEDTAVYYCAATVWVYRRSRDYWGQGTQVTVSS”, for which the “polyreactivity (PSR sort gate)” value is “low polyreactivity”.

As for “QVQLVESGGGLVQAGGILRLSCAASGSTFTDSDMGWYRQAPGKERELVAAITSGGSTNYADSVKGRFTISLDNAKYTVYLPMNSLKPEDSAVYYCAAADADRKYDYWGQGTQVTVSS”, the “polyreactivity (PSR sort gate)” value is “low polyreactivity”.

On to “QVQLVESGGGLVQAGGSLRLSCAASGFTFYTYAMGWYRQAPGKERELVADISSGGSTNYADSVKGRFTISRDNAKNTVYLQMNSLKPEDTAVYYCSADYYFLDWYDYWGQGTQVTVSS”, for which the “polyreactivity (PSR sort gate)” value is “low polyreactivity”.

With “QVQLVESGGGLVQAGGSLRLSCAASGSIRHNTMGWYRQAPGKEREFVASISKRGGSTYYADSVKGRFTISRDNAKNTVYLQMNSLKPEYTAVYYCNAGAVTFVGRDYWGQGTQVTVSS”, the “polyreactivity (PSR sort gate)” value is “high polyreactivity”.

On to “QVQLVESGGGLVQAGGSLRLSCAASGITFYVYTMGWYRQAPGKERELVAAINGSGGSTNYADSVKGRFPISRDNAKNTVYLQMNSLKPDDTAVYYCAADWSLSLYDYWGQGTQVSVSS”, for which the “polyreactivity (PSR sort gate)” value is “low polyreactivity”.

“QVQLVESGGGLVQAGGSLRLICAASGRIFYGYAMGWYRQAPGKEREFVAAITVSAGSTYYADSVKGRFTISRDYAKNTVYLQMNSLKPEDTAVYYCAAKRYVYPSYRFDYWGQGTQVTVSS”: the “polyreactivity (PSR sort gate)” value was “low polyreactivity”.

For the sequence “QVQLVESGGGLDQAGGSLRLSCAASGYTFNLNAMGWYRQAPGKERELVAAISSGDSTDYADSVKGRFTISRDNAKNTVYLQMHSLQPEDTAVYYCNADLPVVWRRDFWGDLYWGQATQVTVSS”, the “polyreactivity (PSR sort gate)” value is “low polyreactivity”.

For “QVQLVESGGGLVQAGGSLRLSCAATVLKFGKNPMGSYRQATGKERELVAVISWRGSSTYYADSVKGRFTISRVNAKNTVFLQMNSLKPEDTAVYYCTDVYVYVHYQPGYYWGQGTQVTVSS”, the “polyreactivity (PSR sort gate)” value is “low polyreactivity”.

Consider “QVQLVESAAGLVQAGASLRLSCAPSGSIFSGNALGWSRQAPGKARELVAAISQNGGRTYYADSVKGRFTISRDYAKNTVYLQMNILKPDDTAVYYCAALAVRFYSSYDYWGQGTQVTVSS”, for which the “polyreactivity (PSR sort gate)” value was “high polyreactivity”.

“QVQLVESGGGLVQAGGSLRLSCAASGSIFWHNAMGWYRQAPGTEREFVAAISGSGGSTYYADSVKGRFTISRDNAKNTVYLQMISLKPEDTAVYYCAADIYYWSFYYSRYDYWGQGTQVTVSS”: the “polyreactivity (PSR sort gate)” value is “high polyreactivity”.

With “QVQLVESGGGLVQAGGSLRLSCAASGSTFYYYAMGWYRQAPGKERELVAAISRGGSTYYADSVKGRFTISRDNAKNTVYLQMNSLKPEDTAVYYCAVDARPYRQIYLYEYWGQGTQVTVSS”, the “polyreactivity (PSR sort gate)” value is listed as “low polyreactivity”.
